Assay results taken from PMC8146883, “A New Thermophilic Ene-Reductase from the Filamentous Anoxygenic Phototrophic Bacterium Chloroflexus aggregans” (Microorganisms, 2021).

Key:
Assay in all cases: purified protein
Format in all cases: biochemical, Chloroflexus aggregans
Conditions in all cases: 100 μM NADPH, 50 mM Tris-HCl pH 8.0, 25 °C, 1% ethanol, 200 nM enzyme
purified protein [1] = substrate: C=CC(=O)CCCCC
purified protein [2] = substrate: CC1=CC(=O)CC(C)(C)C1=O
purified protein [3] = substrate: O=C1C=CCCC1

B1: CaOYE (Chloroflexus aggregans DSM 9485) (protein)
chain: MQPHLFTPLTIGSVTLRNRIGMSPMCQYSAVDGFPTDWHLMHLGARAAGGVGLIILEATAVSPEGRISPFDLGIWSDDHIAALSRIVKLIESLGAVAGIQLAHAGRKASVGRPWEGGKPIAPANGGWPVVGPTAEPFAPGYPTPIPLDAAGIARVVADFATATKRARAAGFRWIEIHAAHGYLLHNFLSPLGNDRNDEYGGDLRGRVRLLSEVTAAVRAEWPSDLPLAVRLSCSDWTPEGLTIADTVEVARMLREQGVDLIDCSSGGIAPGITIPVGEGYQVPFAAQVRREANIATAAVGLITRPEHADAIVRNGDADLVLLGRELLRDPHWPLRAARALGHDLAPPPQYLRAW
notes: full-length ORF in pET-28a(+) (NdeI/BamHI), N-terminal His6-tag, E. coli BL21(DE3); model visible Met1 to Trp354; monomer in solution, dimer in crystal
With B1 as the protein, how does the Km (purified protein [1]) read?
Its Km is 10.32 ± 1.438 mM.

What about the kcat (purified protein [1]) of the same protein?
Its kcat is 12.1 ± 0.661 s⁻¹.

And the kcat/Km (purified protein [1])?
The kcat/Km was 1170 M⁻¹ s⁻¹.

And the Km (purified protein [2])?
The Km was 0.013 ± 0.002 mM.

What about the kcat (purified protein [2]) of the same protein?
Its kcat is 2.27 ± 0.055 s⁻¹.

And the kcat/Km (purified protein [2])?
Its kcat/Km is 175000 M⁻¹ s⁻¹.

What about the Km (purified protein [3]) of the same protein?
Its Km is 5.520 ± 0.627 mM.

And the kcat (purified protein [3])?
The kcat was 3.82 ± 0.176 s⁻¹.

What about the kcat/Km (purified protein [3]) of the same protein?
The kcat/Km was 690 M⁻¹ s⁻¹.
